From publication PMC2821024

Target: HuM7AIQ2 heavy chain, wild-type (human myosin VIIa Met1-Arg796, motor domain plus two IQ motifs) (human) (UniProt Q13402)
Test: co-purification on anti-FLAG resin, SDS-PAGE densitometry

UniProt Q13402, sequence (Q13402 1-796): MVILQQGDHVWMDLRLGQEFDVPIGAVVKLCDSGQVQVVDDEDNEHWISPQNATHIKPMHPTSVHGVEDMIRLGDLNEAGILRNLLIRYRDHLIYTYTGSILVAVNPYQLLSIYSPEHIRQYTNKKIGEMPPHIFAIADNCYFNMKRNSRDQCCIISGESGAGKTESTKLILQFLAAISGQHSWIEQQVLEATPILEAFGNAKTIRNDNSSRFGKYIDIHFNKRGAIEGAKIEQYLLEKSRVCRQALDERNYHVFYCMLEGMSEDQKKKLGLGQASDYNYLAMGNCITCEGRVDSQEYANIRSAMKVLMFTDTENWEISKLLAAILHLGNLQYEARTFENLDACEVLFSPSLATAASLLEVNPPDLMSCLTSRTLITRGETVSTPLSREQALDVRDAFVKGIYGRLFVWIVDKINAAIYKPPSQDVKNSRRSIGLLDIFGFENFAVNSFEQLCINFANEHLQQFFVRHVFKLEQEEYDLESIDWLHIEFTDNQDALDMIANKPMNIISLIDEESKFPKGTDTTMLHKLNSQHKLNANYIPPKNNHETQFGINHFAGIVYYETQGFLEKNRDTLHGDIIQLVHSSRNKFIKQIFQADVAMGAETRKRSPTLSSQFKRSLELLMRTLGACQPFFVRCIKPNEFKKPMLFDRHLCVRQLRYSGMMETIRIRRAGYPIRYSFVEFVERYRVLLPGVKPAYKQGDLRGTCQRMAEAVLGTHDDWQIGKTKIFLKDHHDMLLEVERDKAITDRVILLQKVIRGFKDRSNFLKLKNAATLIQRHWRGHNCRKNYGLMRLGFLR

calmodulin (from UniProt P0DP23 1-149) (natural protein)
stoichiometry N (calmodulin per heavy chain): 1.53
